Source: PMC3608507 (Molecular Biology of the Cell, 2013)
Like-named read-outs stand apart in the source and are kept apart here.

Tests used:
Assay in all cases: ELISA
His-lasp-2 (full-length) [1] = target: T1, His-lasp-2 (full-length) (UniProt Q9DC07 1-270)
T1 sequence: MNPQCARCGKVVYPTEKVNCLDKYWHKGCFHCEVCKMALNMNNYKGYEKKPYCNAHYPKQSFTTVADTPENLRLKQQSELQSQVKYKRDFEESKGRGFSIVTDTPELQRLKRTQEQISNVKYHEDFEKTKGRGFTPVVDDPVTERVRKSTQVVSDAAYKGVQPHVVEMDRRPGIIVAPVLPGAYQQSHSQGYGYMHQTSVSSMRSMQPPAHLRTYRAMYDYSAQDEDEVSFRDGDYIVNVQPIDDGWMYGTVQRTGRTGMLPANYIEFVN

His-lasp-2 (full-length) [2] = target: T1, His-lasp-2 (full-length); remark: listed apart in the source
[3] = target: His-paxillin (full-length) (UniProt P49023 1-591)
Chain of His-paxillin (full-length) (P49023 whole entry): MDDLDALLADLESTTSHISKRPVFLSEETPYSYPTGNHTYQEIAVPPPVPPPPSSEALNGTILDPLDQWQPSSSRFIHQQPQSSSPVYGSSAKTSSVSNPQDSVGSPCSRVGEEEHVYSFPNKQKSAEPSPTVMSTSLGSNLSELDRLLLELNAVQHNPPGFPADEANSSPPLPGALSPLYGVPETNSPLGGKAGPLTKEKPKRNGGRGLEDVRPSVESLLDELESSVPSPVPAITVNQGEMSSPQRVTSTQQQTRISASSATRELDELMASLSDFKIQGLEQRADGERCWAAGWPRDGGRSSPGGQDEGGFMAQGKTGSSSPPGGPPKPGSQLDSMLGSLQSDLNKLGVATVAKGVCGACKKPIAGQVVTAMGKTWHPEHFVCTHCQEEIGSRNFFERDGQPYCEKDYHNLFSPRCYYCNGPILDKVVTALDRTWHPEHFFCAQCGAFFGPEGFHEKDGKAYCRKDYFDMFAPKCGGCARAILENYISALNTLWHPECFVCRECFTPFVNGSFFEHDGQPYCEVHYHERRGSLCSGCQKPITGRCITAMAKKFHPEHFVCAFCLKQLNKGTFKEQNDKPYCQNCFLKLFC

B1: GST-lasp-1 (full-length) (natural protein)
chain: MNPNCARCGKIVYPTEKVNCLDKYWHKACFHCETCKMTLNMKNYKGYEKKPYCNAHYPKQSFTMVADTPENLRLKQQSELQSQVRYKEEFEKNKGKGFSVVADTPELQRIKKTQDQISNIKYHEEFEKSRMGPSGGEGVEPERREAQDSSSYRRPTEQQQPQPHHIPTSAPVYQQPQQQQMTSSYGGYKEPAAPVSIQRSAPGGGGKRYRAVYDYSAADEDEVSFQDGDTIVNVQQIDDGWMYGTVERTGDTGMLPANYVEAI
- Kd (His-lasp-2 (full-length) [1]): ~15 nM

B2: His-vinculin-tail (amino acids 840-1066) (domain or fragment)
chain: PDFPPPPPDLEQLRLTDELAPPKPPLPEGEVPPPRPPPPEEKDEEFPEQKAGEVINQPMMMAARQLHDEARKWSSKGNDIIAAAKRMALLMAEMSRLVRGGSGTKRALIQCAKDIAKASDEVTRLAKEVAKQCTDKRIRTNLLQVCERIPTISTQLKILSTVKATMLGRTNISDEESEQATEMLVHNAQNLMQSVKETVREAEAASIKIRTDAGFTLRWVRKTPWYQ
- Kd (His-lasp-2 (full-length) [2]): ~140 nM

B3: GST-lasp-2 (full-length) (natural protein)
chain: T1 sequence
- Kd [3]: ~20 nM
